Results published in patent US12545899B2, “Luciferase enzymes for use with thermostable luciferins in bioluminescent assays” (Promega Corporation, priority 2018, dated 2026).

Experiments:
[1] = E. coli lysate screen of epPCR/DNA shuffling variants with CS0280; assay type: biochemical; details: Detection Reagent, 1 mM ATP, 500 μM substrate, 3 mins
Description: (§1) These experiments included lysing E. coli cells expressing each luciferase enzyme variant in Detection Reagent containing 1 mM ATP+500 μM substrate. The cell lysate was incubated at room temperature for 3 mins and luminescence was read. The raw luminescence reading was normalized to the on-plate luminescence of ATG-2889, which was used as a control in this screen.

[2] = E. coli lysate screen of epPCR/DNA shuffling variants with CS0333; assay type: biochemical; details: Detection Reagent, 1 mM ATP, 500 μM substrate, 3 mins
Description: as §1

[3] = Kinetic analysis of thermostable variants with CS0280 (Tables 13, 14); assay type: biochemical; details: 2 mM ATP
[4] = Kinetic analysis of thermostable variants with CS0280 (Table 10); assay type: biochemical
Description: (§2) Experiments were also conducted to evaluate the activities (i.e. Vmax and Km) of the various thermostable luciferase variants of Ppe (SEQ ID NO: 1) described above.
(§3) Tables 10 and 11 include representative results of kinetic analysis of the thermostable variants with D/L luciferin, CS0333, and CS0280. […] MK0135 and MK0137 have amino acid substitutions that improve thermostability relative to MK0133 and MK0134, respectively, while retaining activity on the luciferin analogs CS0333 and CS0280.

[5] = Luminescence at 1 mM D/L-luciferin (Table 11); assay type: biochemical; details: 1 mM substrate, 1 mM ATP
From the text: as §3

[6] = Kinetic analysis of thermostable variants with D/L-luciferin (Table 10); assay type: biochemical
Description: as §2, §3

[7] = Kinetic analysis of thermostable variants with CS0333 (Table 10); assay type: biochemical
Description: as §2, §3

[8] = Luminescence at 1 mM CS0333 (Table 11); assay type: biochemical; details: 1 mM substrate, 1 mM ATP
From the text: as §3

[9] = Kinetic analysis of thermostable variants with D/L-luciferin (Tables 13, 14); assay type: biochemical; details: 2 mM ATP
[10] = Differential scanning fluorimetry (DSF) analysis; assay type: physicochemical; details: Table 9B
Procedure, shortened: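 Enzymes mixed with Sypro Orange at 5× final, heated 30–95° C at 1° C per minute with fluorescence read every 60 s. Storage buffer 50 mM HEPES pH 7.5, 100 mM NaCl, 2 mM EDTA, or for luciferase variants 20 mM HEPES pH 7.5, 200 mM NaCl, 1 mM EDTA; per-minute fluorescence change plotted against temperature.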

[11] = Luminescence at 1 mM CS0280 (Table 11); assay type: biochemical; details: 1 mM substrate, 1 mM ATP
From the text: as §3

[12] = Kinetic analysis of thermostable variants with CS0333 (Tables 13, 14); assay type: biochemical; details: 2 mM ATP

Molecule	Normalized luminescence (Mutant RLU/ATG2889 RLU) with CS0280 [1]	Normalized luminescence (Mutant RLU/ATG2889 RLU) with CS0333 [2]	Km ([4]; BrightGlo Buffer) [µM]	Vmax (RLU) ([4]; BrightGlo Buffer)	Km ([4]; Detection Reagent Buffer) [µM]	Vmax (RLU) ([4]; Detection Reagent Buffer)	Km ([6]; BrightGlo Buffer) [µM]	Vmax (RLU) ([6]; BrightGlo Buffer)	Km ([6]; Detection Reagent Buffer) [µM]	Vmax (RLU) ([6]; Detection Reagent Buffer)	Km ([7]; BrightGlo Buffer) [µM]	Vmax (RLU) ([7]; BrightGlo Buffer)	Km ([7]; Detection Reagent Buffer) [µM]	Vmax (RLU) ([7]; Detection Reagent Buffer)	DSF Tm (° C.) [10] [°C]	other results
C4598F8: SEQ ID NO: 60; H244W+T344A+I396K+I109V+V262A+V287I+K309N (protein) MADKNILYGPEPFYPLEDGTAGEQMFDALSRYAAIPGCIALTNAHTKENVLYEEFLKLSCRLAESFKKYGLKQNDTIAVCSENSLQFFLPVIASLYLGIIVAPVNDKYVERELIHSLGIVKPRIVFCSKNTFQKVLNVKSKLKSIETIIILDLNEDLGGYQCLNNFISQNSDSNLDVKKFKPYSFNRDDQVASIMFSSGTTGLPKGVMLTHKNIVARFSIAKDPTFGNAINPTSAILTVIPFHWGFGMMTTLGYFTCGFRVALMHTFEEKLFLQSLQDYKVESTLLIPTLMAFLAKSALVEKYDLSHLNEIASGGAPLSKEIGEMVKKRFKLNFVRQGYGLTEATSAVLITPKGDAKPGSTGKIVPLHAVKVVDPTTGKILGPNEPGELYFKGPMKMKGYYNNEEATKAIIDNDGWLRSGDIAYYDNDGHFYIVDRLKSLIKYKGYQVAPAEIEGILLQHPYIVDAGVTGIPDEAAGELPAAGVVVQTGKYLNEQIVQDYVASQVSTAKWLRGGVKFLDEIPKGSTGKIDRKVLRQMLEKHTNGHHHHHHHH	5.88	4.91														
C4608E7: SEQ ID NO: 63; H244W+T344A+I396K+K121N+N228D+V287I (protein) MADKNILYGPEPFYPLEDGTAGEQMFDALSRYAAIPGCIALTNAHTKENVLYEEFLKLSCRLAESFKKYGLKQNDTIAVCSENSLQFFLPVIASLYLGIIVAPVNDKYIERELIHSLGIVNPRIVFCSKNTFQKVLNVKSKLKSIETIIILDLNEDLGGYQCLNNFISQNSDSNLDVKKFKPYSFNRDDQVASIMFSSGTTGLPKGVMLTHKNIVARFSIAKDPTFGDAINPTSAILTVIPFHWGFGMMTTLGYFTCGFRVVLMHTFEEKLFLQSLQDYKVESTLLIPTLMAFLAKSALVEKYDLSHLKEIASGGAPLSKEIGEMVKKRFKLNFVRQGYGLTEATSAVLITPKGDAKPGSTGKIVPLHAVKVVDPTTGKILGPNEPGELYFKGPMKMKGYYNNEEATKAIIDNDGWLRSGDIAYYDNDGHFYIVDRLKSLIKYKGYQVAPAEIEGILLQHPYIVDAGVTGIPDEAAGELPAAGVVVQTGKYLNEQIVQDYVASQVSTAKWLRGGVKFLDEIPKGSTGKIDRKVLRQMLEKHTNGHHHHHHHH	5.26	6.86														
MK0137: SEQ ID NO: 105; H244W+S193A+N228D+L305F+S306P+I109V+C38R+F55I+Y108F+A316W+Y339M+T342S+V348I (protein) MADKNILYGPEPFYPLEDGTAGEQMFDALSRYAAIPGRIALTNAHTKENVLYEEILKLSCRLAESFKKYGLKQNDTIAVCSENSLQFFLPVIASLYLGIIVAPVNDKFVERELIHSLGIVKPRIVFCSKNTFQKVLNVKSKLKSIETIIILDLNEDLGGYQCLNNFISQNSDSNLDVKKFKPYSFNRDDQVAAIMFSSGTTGLPKGVMLTHKNIVARFSIAKDPTFGDAINPTSAILTVIPFHWGFGMMTTLGYFTCGFRVVLMHTFEEKLFLQSLQDYKVESTLLVPTLMAFLAKSALVEKYDFPHLKEIASGGWPLSKEIGEMVKKRFKLNFVRQGMGLTEITSAVLITPKGDAKPGSTGKIVPLHAVKVVDPTTGKILGPNEPGELYFKGPMKMKGYYNNEEATKAIIDNDGWLRSGDIAYYDNDGHFYIVDRLKSLIKYKGYQVAPAEIEGILLQHPYIVDAGVTGIPDEAAGELPAAGVVVQTGKYLNEQIVQDYVASQVSTAKWLRGGVKFLDEIPKGSTGKIDRKVLRQMLEKHTNGHHHHHHHH			2.92	2,255,088 RLU	18.9	109,120 RLU	0.0368	279,889 RLU	0.196	40,917 RLU	7.17	5,453,269 RLU	80.5	3,679,125 RLU	69	Km ([3]; BrightGlo Buffer): 4.08 µM; Vmax (RLU) ([3]; BrightGlo Buffer): 825,876 RLU; Km ([3]; Detection Reagent Buffer): 535 µM; Vmax (RLU) ([3]; Detection Reagent Buffer): 88,972 RLU; Vmax (RLU) D/L-luciferin BrightGlo Buffer ([5]; BrightGlo Buffer): 326,347 RLU; Vmax (RLU) D/L-luciferin Detection Reagent Buffer ([5]; Detection Reagent Buffer): 48,315 RLU; Vmax (RLU) CS0333 BrightGlo Buffer ([8]; BrightGlo Buffer): 3,882,620 RLU; Vmax (RLU) CS0333 Detection Reagent Buffer ([8]; Detection Reagent Buffer): 3,127,710 RLU; Km ([9]; BrightGlo Buffer): 0.0835 µM; Vmax (RLU) ([9]; BrightGlo Buffer): 253,978 RLU; Km ([9]; Detection Reagent Buffer): 0.306 µM; Vmax (RLU) ([9]; Detection Reagent Buffer): 29,013 RLU; Vmax (RLU) CS0280 BrightGlo Buffer ([11]; BrightGlo Buffer): 1,931,470 RLU; Vmax (RLU) CS0280 Detection Reagent Buffer ([11]; Detection Reagent Buffer): 117,973 RLU; Km ([12]; BrightGlo Buffer): 4.27 µM; Vmax (RLU) ([12]; BrightGlo Buffer): 3,236,246 RLU; Km ([12]; Detection Reagent Buffer): 18.8 µM; Vmax (RLU) ([12]; Detection Reagent Buffer): 668,831 RLU
MK0134: SEQ ID NO: 102; H244W+T344A+I396K+S193A+N228D+L305F+S306P+I109V+C38R+F55I+Y108F+A316W+Y339M (protein) MADKNILYGPEPFYPLEDGTAGEQMFDALSRYAAIPGRIALTNAHTKENVLYEEILKLSCRLAESFKKYGLKQNDTIAVCSENSLQFFLPVIASLYLGIIVAPVNDKYVERELIHSLGIVKPRIVFCSKNTFQKVLNVKSKLKSIETIIILDLNEDLGGYQCLNNFISQNSDSNLDVKKFKPYSFNRDDQVAAIMFSSGTTGLPKGVMLTHKNIVARFSIAKDPTFGDAINPTSAILTVIPFHWGFGMMTTLGYFTCGFRVVLMHTFEEKLFLQSLQDYKVESTLLVPTLMAFLAKSALVEKYDFPHLKEIASGGWPLSKEIGEMVKKRFKLNFVRQGYGLSEITSAILITPKGDAKPGSTGKIVPLHAVKVVDPTTGKILGPNEPGELYFKGPMKMKGYYNNEEATKAIIDNDGWLRSGDIAYYDNDGHFYIVDRLKSLIKYKGYQVAPAEIEGILLQHPYIVDAGVTGIPDEAAGELPAAGVVVQTGKYLNEQIVQDYVASQVSTAKWLRGGVKFLDEIPKGSTGKIDRKVLRQMLEKHTNGHHHHHHHH			1.21	15,499,640 RLU	6.12	1,208,016 RLU	0.0257	377,267 RLU	0.161	430,060 RLU	2.24	11,167,451 RLU	26.5	9,278,637 RLU	57	
MK0135: SEQ ID NO: 103; H244W+S193A+N228D+L305F+S306P+I109V+C38R+F55I+A316W+T342S+V348I (protein) MADKNILYGPEPFYPLEDGTAGEQMFDALSRYAAIPGRIALTNAHTKENVLYEEILKLSCRLAESFKKYGLKQNDTIAVCSENSLQFFLPVIASLYLGIIVAPVNDKFVERELIHSLGIVKPRIVFCSKNTFQKVLNVKSKLKSIETIIILDLNEDLGGYQCLNNFISQNSDSNLDVKKFKPYSFNRDDQVAAIMFSSGTTGLPKGVMLTHKNIVARFSIAKDPTFGDAINPTSAILTVIPFHWGFGMMTTLGYFTCGFRVVLMHTFEEKLFLQSLQDYKVESTLLVPTLMAFLAKSALVEKYDFPHLKEIASGGWPLSKEIGEMVKKRFKLNFVRQGMGLTEATSAVLITPKGDAKPGSTGKIVPLHAVKVVDPTTGKILGPNEPGELYFKGPMKMKGYYNNEEATKAIIDNDGWLRSGDIAYYDNDGHFYIVDRLKSLIKYKGYQVAPAEIEGILLQHPYIVDAGVTGIPDEAAGELPAAGVVVQTGKYLNEQIVQDYVASQVSTAKWLRGGVKFLDEIPKGSTGKIDRKVLRQMLEKHTNGHHHHHHHH			22	343,822 RLU	150	15,983 RLU	0.157	490,914 RLU	0.746	93,531 RLU	43.4	4,782,661 RLU	509	1,018,125 RLU	78	
